Source: the supplement of paper PMC9112550, “Optimization of the antimicrobial peptide Bac7 by deep mutational scanning” (BMC Biology, 2022)

Tested on: Escherichia coli TOP10
Assay: shrunken log2 fold change of peptide-encoding DNA abundance (4.5 h post-induction vs induction); higher = less antimicrobial activity (less host growth inhibition)
Conditions: time post-induction: 4.5 h; library: site-saturation at positions 5, 18, 19, 20
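Note: peptides expressed intracellularly from a pBAD plasmid library in pooled LB shake-flask culture, induced with 0.3% L-arabinose, DNA abundance read by NGS, three biological replicates, DESeq2 with apeglm shrinkage.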

Sequence	shrunken log2 fold change
RRIRRRPPRLPRPRPRPGKVPRP	-0.037
RRIRRRPPRLPRPRPRPGMFPRP	0.00289
RRIRRRPPRLPRPRPRPGMMPRP	0.257
RRIRRRPPRLPRPRPRPGNAPRP	0.304
RRIRRRPPRLPRPRPRPGNIPRP	-0.0618
RRIRRRPPRLPRPRPRPGPVPRP	0.332
RRIRRRPPRLPRPRPRPGPYPRP	0.18
RRIRRRPPRLPRPRPRPGQTPRP	0.0182
RRIRRRPPRLPRPRPRPGQYPRP	-0.16
RRIRRRPPRLPRPRPRPGRAPRP	0.648
RRIRRRPPRLPRPRPRPGSMPRP	-0.387
RRIRRRPPRLPRPRPRPGVIPRP	-0.0223
RRIRRRPPRLPRPRPRPGWAPRP	0.573
RRIRRRPPRLPRPRPRPGWWPRP	0.478
RRIRRRPPRLPRPRPRPHCAPRP	0.419
RRIRRRPPRLPRPRPRPHDTPRP	-0.0817
RRIRRRPPRLPRPRPRPHEEPRP	0.0957
RRIRRRPPRLPRPRPRPHEMPRP	0.489
RRIRRRPPRLPRPRPRPHGKPRP	0.0359
RRIRRRPPRLPRPRPRPHHDPRP	-0.298
RRIRRRPPRLPRPRPRPHHFPRP	-0.196
RRIRRRPPRLPRPRPRPHIRPRP	0.00753
RRIRRRPPRLPRPRPRPHKEPRP	0.0317
RRIRRRPPRLPRPRPRPHKHPRP	-0.165
RRIRRRPPRLPRPRPRPHLMPRP	0.226

Sequence	shrunken log2 fold change
RRIRRRPPRLPRPRPRPHMTPRP	0.00051
RRIRRRPPRLPRPRPRPHNAPRP	2.48
RRIRRRPPRLPRPRPRPHNNPRP	-0.508
RRIRRRPPRLPRPRPRPHNVPRP	-0.916
RRIRRRPPRLPRPRPRPHNWPRP	-0.131
RRIRRRPPRLPRPRPRPHQGPRP	0.0901
RRIRRRPPRLPRPRPRPHTHPRP	-0.11
RRIRRRPPRLPRPRPRPHVMPRP	1.55
RRIRRRPPRLPRPRPRPHYEPRP	-0.508
RRIRRRPPRLPRPRPRPHYLPRP	-0.156
RRIRRRPPRLPRPRPRPHYNPRP	-0.202
RRIRRRPPRLPRPRPRPHYVPRP	-0.13
RRIRRRPPRLPRPRPRPIAIPRP	0.108
RRIRRRPPRLPRPRPRPIATPRP	0.0769
RRIRRRPPRLPRPRPRPICWPRP	0.388
RRIRRRPPRLPRPRPRPIDAPRP	0.227
RRIRRRPPRLPRPRPRPIEEPRP	0.0745
RRIRRRPPRLPRPRPRPIFVPRP	0.0119
RRIRRRPPRLPRPRPRPIGEPRP	-0.00811
RRIRRRPPRLPRPRPRPIGNPRP	0.0912
RRIRRRPPRLPRPRPRPIGVPRP	0.273
RRIRRRPPRLPRPRPRPIHFPRP	-0.174
RRIRRRPPRLPRPRPRPIHGPRP	-0.302
RRIRRRPPRLPRPRPRPIHMPRP	-0.206
RRIRRRPPRLPRPRPRPIHQPRP	-0.136

Sequence	shrunken log2 fold change
RRIRRRPPRLPRPRPRPIHRPRP	-0.041
RRIRRRPPRLPRPRPRPIIAPRP	0.0198
RRIRRRPPRLPRPRPRPIIYPRP	-0.0798
RRIRRRPPRLPRPRPRPILVPRP	-0.106
RRIRRRPPRLPRPRPRPIMEPRP	0.161
RRIRRRPPRLPRPRPRPIMKPRP	-0.0396
RRIRRRPPRLPRPRPRPIPSPRP	0.247
RRIRRRPPRLPRPRPRPISPPRP	-0.00237
RRIRRRPPRLPRPRPRPISVPRP	-0.115
RRIRRRPPRLPRPRPRPITRPRP	0.0299
RRIRRRPPRLPRPRPRPIYPPRP	-0.2
RRIRRRPPRLPRPRPRPKAEPRP	0.0655
RRIRRRPPRLPRPRPRPKCMPRP	-0.172
RRIRRRPPRLPRPRPRPKCQPRP	0.506
RRIRRRPPRLPRPRPRPKDLPRP	-0.0233
RRIRRRPPRLPRPRPRPKDNPRP	0.0969
RRIRRRPPRLPRPRPRPKDRPRP	0.09
RRIRRRPPRLPRPRPRPKDSPRP	0.191
RRIRRRPPRLPRPRPRPKDYPRP	-0.485
RRIRRRPPRLPRPRPRPKEHPRP	0.345
RRIRRRPPRLPRPRPRPKESPRP	0.023
RRIRRRPPRLPRPRPRPKETPRP	0.17
RRIRRRPPRLPRPRPRPKGAPRP	0.28
RRIRRRPPRLPRPRPRPKGCPRP	0.0288
RRIRRRPPRLPRPRPRPKGYPRP	0.172

Sequence	shrunken log2 fold change
RRIRRRPPRLPRPRPRPKHMPRP	0.932
RRIRRRPPRLPRPRPRPKHTPRP	0.32
RRIRRRPPRLPRPRPRPKIDPRP	-0.000206
RRIRRRPPRLPRPRPRPKIGPRP	0.396
RRIRRRPPRLPRPRPRPKINPRP	-0.123
RRIRRRPPRLPRPRPRPKKKPRP	-0.00706
RRIRRRPPRLPRPRPRPKKVPRP	0.242
RRIRRRPPRLPRPRPRPKKYPRP	-0.103
RRIRRRPPRLPRPRPRPKLWPRP	0.701
RRIRRRPPRLPRPRPRPKMHPRP	0.443
RRIRRRPPRLPRPRPRPKNEPRP	0.294
RRIRRRPPRLPRPRPRPKNKPRP	0.294
RRIRRRPPRLPRPRPRPKPWPRP	0.274
RRIRRRPPRLPRPRPRPKQVPRP	0.351
RRIRRRPPRLPRPRPRPKRFPRP	0.305
RRIRRRPPRLPRPRPRPKRHPRP	0.227
RRIRRRPPRLPRPRPRPKSEPRP	0.0316
RRIRRRPPRLPRPRPRPKTRPRP	2.44
RRIRRRPPRLPRPRPRPKVNPRP	0.468
RRIRRRPPRLPRPRPRPKWLPRP	0.269
RRIRRRPPRLPRPRPRPKWVPRP	0.242
RRIRRRPPRLPRPRPRPKYAPRP	-0.0331
RRIRRRPPRLPRPRPRPLAEPRP	0.654
RRIRRRPPRLPRPRPRPLAQPRP	0.498
RRIRRRPPRLPRPRPRPLCCPRP	0.293

Sequence	shrunken log2 fold change
RRIRRRPPRLPRPRPRPLCIPRP	-0.119
RRIRRRPPRLPRPRPRPLCSPRP	-0.255
RRIRRRPPRLPRPRPRPLEGPRP	0.0703
RRIRRRPPRLPRPRPRPLFSPRP	-0.0439
RRIRRRPPRLPRPRPRPLGPPRP	0.304
RRIRRRPPRLPRPRPRPLHFPRP	0.397
RRIRRRPPRLPRPRPRPLIDPRP	0.192
RRIRRRPPRLPRPRPRPLIRPRP	-0.295
RRIRRRPPRLPRPRPRPLIWPRP	0.192
RRIRRRPPRLPRPRPRPLLAPRP	0.887
RRIRRRPPRLPRPRPRPLLFPRP	0.278
RRIRRRPPRLPRPRPRPLLYPRP	0.138
RRIRRRPPRLPRPRPRPLNAPRP	0.257
RRIRRRPPRLPRPRPRPLNHPRP	-0.0852
RRIRRRPPRLPRPRPRPLPIPRP	0.451
RRIRRRPPRLPRPRPRPLPLPRP	0.0912
RRIRRRPPRLPRPRPRPLPNPRP	-0.0597
RRIRRRPPRLPRPRPRPLSHPRP	0.0117
RRIRRRPPRLPRPRPRPLTKPRP	0.132
RRIRRRPPRLPRPRPRPLTMPRP	0.0632
RRIRRRPPRLPRPRPRPLTPPRP	0.489
RRIRRRPPRLPRPRPRPLTTPRP	0.311
RRIRRRPPRLPRPRPRPLVFPRP	-0.0441
RRIRRRPPRLPRPRPRPLWNPRP	0.117
RRIRRRPPRLPRPRPRPLWPPRP	0.484

Sequence	shrunken log2 fold change
RRIRRRPPRLPRPRPRPLYFPRP	-0.115
RRIRRRPPRLPRPRPRPMAKPRP	0.315
RRIRRRPPRLPRPRPRPMCNPRP	0.0275
RRIRRRPPRLPRPRPRPMEGPRP	0.0518
RRIRRRPPRLPRPRPRPMFLPRP	0.0789
RRIRRRPPRLPRPRPRPMFVPRP	-0.0498
RRIRRRPPRLPRPRPRPMHAPRP	1.49
RRIRRRPPRLPRPRPRPMHCPRP	0.505
RRIRRRPPRLPRPRPRPMIWPRP	0.0834
RRIRRRPPRLPRPRPRPMKEPRP	0.135
RRIRRRPPRLPRPRPRPMLMPRP	0.122
RRIRRRPPRLPRPRPRPMLWPRP	-0.0161
RRIRRRPPRLPRPRPRPMMRPRP	0.73
RRIRRRPPRLPRPRPRPMMVPRP	-0.00292
RRIRRRPPRLPRPRPRPMNPPRP	0.212
RRIRRRPPRLPRPRPRPMPHPRP	-0.124
RRIRRRPPRLPRPRPRPMPIPRP	0.25
RRIRRRPPRLPRPRPRPMSEPRP	0.0166
RRIRRRPPRLPRPRPRPMSTPRP	0.231
RRIRRRPPRLPRPRPRPMVPPRP	0.135
RRIRRRPPRLPRPRPRPMWDPRP	0.164
RRIRRRPPRLPRPRPRPNCKPRP	0.155
RRIRRRPPRLPRPRPRPNEAPRP	0.271
RRIRRRPPRLPRPRPRPNEMPRP	0.245
RRIRRRPPRLPRPRPRPNFHPRP	0.75
